# B1: SNAP91 (parent)
# chain: FSTDAFSSPPQGASPVPESSLTAD
# Variants of: B1
# Test: protein stability index of a GFP-peptide fusion (GPS, HEK-293T) (PSI 1-6); higher = more stable
# Settings: c terminus: a fixed tail appended
# 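Further: lentivirally expressed fusions sorted by FACS into six bins by GFP to DsRed ratio, PSI derived from sequencing read proportions per bin multiplied by bin number.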
row,Variant,protein stability index
1,FMTDAFSSPPQGASPVPESSLTAD [S2M],3.32
2,FNTDAFSSPPQGASPVPESSLTAD [S2N],5.09
3,FPTDAFSSPPQGASPVPESSLTAD [S2P],3
4,FQTDAFSSPPQGASPVPESSLTAD [S2Q],2.58
5,FRTDAFSSPPQGASPVPESSLTAD [S2R],5.05
6,FTTDAFSSPPQGASPVPESSLTAD [S2T],1.67
7,FVTDAFSSPPQGASPVPESSLTAD [S2V],3.15
8,FWTDAFSSPPQGASPVPESSLTAD [S2W],3.48
9,FYTDAFSSPPQGASPVPESSLTAD [S2Y],4.7
10,FSADAFSSPPQGASPVPESSLTAD [T3A],5.12
11,FSCDAFSSPPQGASPVPESSLTAD [T3C],4.3
12,FSDDAFSSPPQGASPVPESSLTAD [T3D],5.08
13,FSEDAFSSPPQGASPVPESSLTAD [T3E],5.08
14,FSFDAFSSPPQGASPVPESSLTAD [T3F],4.6
15,FSGDAFSSPPQGASPVPESSLTAD [T3G],4.47
16,FSHDAFSSPPQGASPVPESSLTAD [T3H],5.4
17,FSIDAFSSPPQGASPVPESSLTAD [T3I],4.4
18,FSKDAFSSPPQGASPVPESSLTAD [T3K],4.93
19,FSLDAFSSPPQGASPVPESSLTAD [T3L],4.93
20,FSMDAFSSPPQGASPVPESSLTAD [T3M],3.37
21,FSNDAFSSPPQGASPVPESSLTAD [T3N],4.84
22,FSPDAFSSPPQGASPVPESSLTAD [T3P],4.49
23,FSQDAFSSPPQGASPVPESSLTAD [T3Q],5.5
24,FSRDAFSSPPQGASPVPESSLTAD [T3R],4.91

row,Variant,protein stability index
1,FSSDAFSSPPQGASPVPESSLTAD [T3S],2.95
2,FSVDAFSSPPQGASPVPESSLTAD [T3V],4.56
3,FSWDAFSSPPQGASPVPESSLTAD [T3W],4.38
4,FSYDAFSSPPQGASPVPESSLTAD [T3Y],4.46
5,FSTAAFSSPPQGASPVPESSLTAD [D4A],3.25
6,FSTCAFSSPPQGASPVPESSLTAD [D4C],2.76
7,FSTEAFSSPPQGASPVPESSLTAD [D4E],4.2
8,FSTFAFSSPPQGASPVPESSLTAD [D4F],3.06
9,FSTGAFSSPPQGASPVPESSLTAD [D4G],2.71
10,FSTHAFSSPPQGASPVPESSLTAD [D4H],3.44
11,FSTIAFSSPPQGASPVPESSLTAD [D4I],3.45
12,FSTKAFSSPPQGASPVPESSLTAD [D4K],2.94
13,FSTLAFSSPPQGASPVPESSLTAD [D4L],2.63
14,FSTMAFSSPPQGASPVPESSLTAD [D4M],2.92
15,FSTNAFSSPPQGASPVPESSLTAD [D4N],2.66
16,FSTPAFSSPPQGASPVPESSLTAD [D4P],4.29
17,FSTQAFSSPPQGASPVPESSLTAD [D4Q],3.28
18,FSTRAFSSPPQGASPVPESSLTAD [D4R],2.37
19,FSTSAFSSPPQGASPVPESSLTAD [D4S],2.82
20,FSTTAFSSPPQGASPVPESSLTAD [D4T],2.21
21,FSTVAFSSPPQGASPVPESSLTAD [D4V],3.28
22,FSTWAFSSPPQGASPVPESSLTAD [D4W],1.67
23,FSTYAFSSPPQGASPVPESSLTAD [D4Y],3.02
24,FSTDCFSSPPQGASPVPESSLTAD [A5C],4.07

row,Variant,protein stability index
1,FSTDDFSSPPQGASPVPESSLTAD [A5D],5.61
2,FSTDEFSSPPQGASPVPESSLTAD [A5E],4.8
3,FSTDFFSSPPQGASPVPESSLTAD [A5F],2.03
4,FSTDGFSSPPQGASPVPESSLTAD [A5G],4.76
5,FSTDHFSSPPQGASPVPESSLTAD [A5H],4.59
6,FSTDIFSSPPQGASPVPESSLTAD [A5I],3.79
7,FSTDKFSSPPQGASPVPESSLTAD [A5K],4.71
8,FSTDLFSSPPQGASPVPESSLTAD [A5L],3.55
9,FSTDMFSSPPQGASPVPESSLTAD [A5M],4.56
10,FSTDNFSSPPQGASPVPESSLTAD [A5N],5.16
11,FSTDPFSSPPQGASPVPESSLTAD [A5P],4.94
12,FSTDQFSSPPQGASPVPESSLTAD [A5Q],4.88
13,FSTDRFSSPPQGASPVPESSLTAD [A5R],4.71
14,FSTDSFSSPPQGASPVPESSLTAD [A5S],4.68
15,FSTDTFSSPPQGASPVPESSLTAD [A5T],4.96
16,FSTDVFSSPPQGASPVPESSLTAD [A5V],4.18
17,FSTDWFSSPPQGASPVPESSLTAD [A5W],1.92
18,FSTDYFSSPPQGASPVPESSLTAD [A5Y],2.33
19,FSTDAASSPPQGASPVPESSLTAD [F6A],5.57
20,FSTDACSSPPQGASPVPESSLTAD [F6C],5.09
21,FSTDADSSPPQGASPVPESSLTAD [F6D],5.44
22,FSTDAESSPPQGASPVPESSLTAD [F6E],5.69
23,FSTDAGSSPPQGASPVPESSLTAD [F6G],5.48
24,FSTDAHSSPPQGASPVPESSLTAD [F6H],5.62

row,Variant,protein stability index
1,FSTDAISSPPQGASPVPESSLTAD [F6I],5.43
2,FSTDAKSSPPQGASPVPESSLTAD [F6K],5.38
3,FSTDALSSPPQGASPVPESSLTAD [F6L],5.55
4,FSTDAMSSPPQGASPVPESSLTAD [F6M],5.53
5,FSTDANSSPPQGASPVPESSLTAD [F6N],5.31
6,FSTDAPSSPPQGASPVPESSLTAD [F6P],5.53
7,FSTDAQSSPPQGASPVPESSLTAD [F6Q],5.63
8,FSTDARSSPPQGASPVPESSLTAD [F6R],5.49
9,FSTDASSSPPQGASPVPESSLTAD [F6S],5.44
10,FSTDATSSPPQGASPVPESSLTAD [F6T],5.61
11,FSTDAVSSPPQGASPVPESSLTAD [F6V],5.59
12,FSTDAWSSPPQGASPVPESSLTAD [F6W],1.86
13,FSTDAYSSPPQGASPVPESSLTAD [F6Y],3.26
14,FSTDAFASPPQGASPVPESSLTAD [S7A],2.98
15,FSTDAFCSPPQGASPVPESSLTAD [S7C],2.18
16,FSTDAFDSPPQGASPVPESSLTAD [S7D],5.47
17,FSTDAFESPPQGASPVPESSLTAD [S7E],5.35
18,FSTDAFFSPPQGASPVPESSLTAD [S7F],1.99
19,FSTDAFGSPPQGASPVPESSLTAD [S7G],3.89
20,FSTDAFHSPPQGASPVPESSLTAD [S7H],2.51
21,FSTDAFISPPQGASPVPESSLTAD [S7I],2.66
22,FSTDAFKSPPQGASPVPESSLTAD [S7K],2.96
